Laboratory results as given in patent publication US20220106400A1 (Bristol-Myers Squibb, published 2022).
Where a chain is given by its changes, count along the chain named. Names may count otherwise. Read-outs that look alike come from different tables or passages of the source. Values belong to the binder of their own block, whether it stands above or below them.

Tests used:
[1] = target: T1, human CD73 on human tumor cell lines (human, UniProt P21589 27-549); experiment: cell-based or functional assay
T1 sequence (looked up): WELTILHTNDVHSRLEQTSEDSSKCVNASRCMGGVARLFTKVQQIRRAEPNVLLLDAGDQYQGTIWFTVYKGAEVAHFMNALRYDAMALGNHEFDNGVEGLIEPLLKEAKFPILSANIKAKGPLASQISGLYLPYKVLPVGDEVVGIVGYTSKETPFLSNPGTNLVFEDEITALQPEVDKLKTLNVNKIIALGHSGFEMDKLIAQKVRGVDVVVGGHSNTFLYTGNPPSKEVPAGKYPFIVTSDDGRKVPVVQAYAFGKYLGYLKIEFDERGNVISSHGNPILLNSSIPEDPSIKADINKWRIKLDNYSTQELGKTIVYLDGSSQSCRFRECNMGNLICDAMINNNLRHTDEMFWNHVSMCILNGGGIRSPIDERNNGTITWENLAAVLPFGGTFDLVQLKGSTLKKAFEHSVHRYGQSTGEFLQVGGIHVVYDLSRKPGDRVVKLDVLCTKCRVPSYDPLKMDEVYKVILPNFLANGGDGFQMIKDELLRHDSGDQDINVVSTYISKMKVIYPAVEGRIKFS

[2] = target: T2, full length extracellular domain of human-CD73 with C-terminal polyhistidine tag (residues 26-546) (human, UniProt P21589 26-546); experiment: SEC, 1:1 molar mix 5.5 uM each
T2 construct: range 26-546; also called hCD73-his; CD73-his
T2 sequence (looked up): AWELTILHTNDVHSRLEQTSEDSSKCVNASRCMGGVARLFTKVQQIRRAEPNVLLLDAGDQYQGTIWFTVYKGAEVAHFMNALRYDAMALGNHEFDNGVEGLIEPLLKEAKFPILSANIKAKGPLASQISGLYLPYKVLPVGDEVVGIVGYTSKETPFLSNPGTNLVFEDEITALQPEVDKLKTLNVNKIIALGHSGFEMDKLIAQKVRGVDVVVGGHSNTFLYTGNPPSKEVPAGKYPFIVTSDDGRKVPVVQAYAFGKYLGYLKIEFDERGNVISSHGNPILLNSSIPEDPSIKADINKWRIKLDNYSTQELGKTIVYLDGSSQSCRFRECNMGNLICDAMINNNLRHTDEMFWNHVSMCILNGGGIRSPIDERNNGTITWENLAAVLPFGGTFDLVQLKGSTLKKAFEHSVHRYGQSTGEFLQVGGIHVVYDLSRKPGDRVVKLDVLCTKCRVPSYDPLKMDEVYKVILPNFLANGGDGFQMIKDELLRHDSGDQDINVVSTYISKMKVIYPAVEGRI
Procedure: The oligomeric state of CD73/antibody complexes were examined by size-exclusion chromatography coupled to an in-line multi-angle light scattering detector (SEC-MALS). Isocratic separations were performed on a Shodex PROTEIN KW-803 column connected to an Prominence Shimadzu UFLC in buffer containing 200 mM K₂HPO₄, 150 mM NaCl, pH 6.8, containing 0.02% Na azide (0.1 μm filtered) running at 0.5 mL/min. Samples were injected onto the column using a SIL-20AC Prominence Shimadzu autosampler, and data were obtained from three online detectors connected in series: a Prominence SPD-20AD diode array UV/vis spectrophotometer followed by a Wyatt miniDAWN™ TREOS Multi-Angle Light Scattering Detector then a Wyatt Optilab T-rEX Refractive Index Detector. Data were collected and analyzed using Astra (Wyatt) and Labsolutions (Shimadzu) software.
CD73.4 antibodies having the heavy chain constant regions set forth in Table 14 were also tested for formation of high molecular weight complexes by SEC-MALS and DLS experiments, as described in Example 3.

[3] = target: T1, human CD73 on human tumor cell lines; experiment: cell-based or functional assay; remark: listed apart in the source

T1/2 internalization, Calu6 [1]: 17.2 min
T1/2 internalization, NCI-H292 [1]: 15.4 min
Ymax internalization, Calu6 [1]: 80.2%
Ymax internalization, NCI-H292 [1]: 89.6%
B2: CD73.4-IgG2.5-plusTHT (antibody)
heavy: QVQLVESGGGVVQPGRSLRLSCAASGFTFSNYGMHWVRQAPGKGLEWVAVILYDGSNKYYPDSVKGRFTISRDNSKNTLYLQMNSLRAEDTAVYYCARGGSSWYPDSFDIWGQGTMVTVSSASTKGPSVFPLAPSSRSTSESTAALGCLVKDYFPEPVTVSWNSGALTSGVHTFPAVLQSSGLYSLSSVVTVPSSNFGTQTYTCNVDHKPSNTKVDKTVERKCCVETHTCPPCPAPPVAGPSVFLFPPKPKDTLMISRTPEVTCVVVDVSHEDPEVQFNWYVDGVEVHNAKTKPREEQFNSTFRVVSVLTVVHQDWLNGKEYKCKVSNKGLPAPIEKTISKTKGQPREPQVYTLPPSREEMTKNQVSLTCLVKGFYPSDIAVEWESNGQPENNYKTTPPMLDSDGSFFLYSKLTVDKSRWQQGNVFSCSVMHEALHNHYTQKSLSLSPGK
light: not shown
notes: also called mAb-CD73.4-IgG2.5plusTHT/LC; CD73.4-Vh-hHC-IgG2.5plusTHT/LC

T1/2 internalization, Calu6 [1]: 20.9 min
T1/2 internalization, NCI-H292 [1]: 18.3 min
Ymax internalization, Calu6 [1]: 79%
Ymax internalization, NCI-H292 [1]: 89.6%
B6: CD73.4-IgG2.5 (antibody)
heavy: QVQLVESGGGVVQPGRSLRLSCAASGFTFSNYGMHWVRQAPGKGLEWVAVILYDGSNKYYPDSVKGRFTISRDNSKNTLYLQMNSLRAEDTAVYYCARGGSSWYPDSFDIWGQGTMVTVSSASTKGPSVFPLAPSSRSTSESTAALGCLVKDYFPEPVTVSWNSGALTSGVHTFPAVLQSSGLYSLSSVVTVPSSNFGTQTYTCNVDHKPSNTKVDKTVERKCCVECPPCPAPPVAGPSVFLFPPKPKDTLMISRTPEVTCVVVDVSHEDPEVQFNWYVDGVEVHNAKTKPREEQFNSTFRVVSVLTVVHQDWLNGKEYKCKVSNKGLPAPIEKTISKTKGQPREPQVYTLPPSREEMTKNQVSLTCLVKGFYPSDIAVEWESNGQPENNYKTTPPMLDSDGSFFLYSKLTVDKSRWQQGNVFSCSVMHEALHNHYTQKSLSLSPGK
light: not shown
notes: also called mAb-CD73.4-IgG2.5; CD73.4-Vh-hHC-IgG2.5

T1/2 internalization, Calu6 [1]: 21.2 min
T1/2 internalization, NCI-H292 [1]: 18 min
Ymax internalization, Calu6 [1]: 79.6%
Ymax internalization, NCI-H292 [1]: 90.9%
B7: CD73.4-IgG2.5G1.1f-KH (antibody)
heavy: B6 heavy with Q274K, F296Y, F300Y, V309L, G327A, A330S, P331S, T339A, M397V
light: not shown
notes: also called mAb-CD73.4-IgG2.5G1.1f-KH; CD73.4-Vh-hHC-IgG2.5G1.1f-KH

Further lines, the binder ahead of its results:

B1: CD73.4-IgG2.3-plusTHT (antibody)
heavy: B2 heavy with S135C, C223S
light: not shown
notes: also called mAb-CD73.4-IgG2.3-plusTHT; CD73.4-Vh-hHC-IgG2.3-plusTHT
T1/2 internalization, Calu6 [1]: 21.3 min
T1/2 internalization, NCI-H292 [1]: 17.6 min
Ymax internalization, Calu6 [1]: 81.2%
Ymax internalization, NCI-H292 [1]: 91.4%
UV % Peak1 <12.9 min [2]: 30.6%
UV % Peak4 16.7-19.3 min (free mAb) [2]: 33.7%
UV % Peak5 >19.3 min [2]: 3.2%

B3: CD73.4-IgG2.3-plusGGG (antibody)
heavy: B2 heavy with S135C, C223S, T227G, H228G, T229G
light: not shown
notes: also called mAb-CD73.4-IgG2.3-plusGGG; CD73.4-Vh-hHC-IgG2.3-plusGGG
T1/2 internalization, Calu6 [1]: 20.1 min
T1/2 internalization, NCI-H292 [1]: 16.3 min
Ymax internalization, Calu6 [1]: 81.7%
Ymax internalization, NCI-H292 [1]: 91.6%

B4: CD73.4-IgG2.5G1-KH (antibody)
heavy: B6 heavy with Q274K, F296Y, F300Y, V309L, G327A, T339A, M397V
light: not shown
notes: also called mAb-CD73.4-IgG2.5G1-KH; CD73.4-Vh-hHC-IgG2.5G1-KH
T1/2 internalization, Calu6 [1]: 17 min
T1/2 internalization, NCI-H292 [1]: 15.4 min
Ymax internalization, Calu6 [1]: 76%
Ymax internalization, NCI-H292 [1]: 90.8%

B5: CD73.4-IgG2.3G1-KH (antibody)
heavy: B6 heavy with S135C, C223S, Q274K, F296Y, F300Y, V309L, G327A, T339A, M397V
light: not shown
notes: also called mAb-CD73.4-IgG2.3G1-KH; CD73.4-Vh-hHC-IgG2.3G1-KH
T1/2 internalization, Calu6 [1]: 23.8 min
T1/2 internalization, NCI-H292 [1]: 16.8 min
Ymax internalization, Calu6 [1]: 81.6%
Ymax internalization, NCI-H292 [1]: 91.6%

B8: CD73.4-IgG2-C219S-IgG1.1f (antibody)
heavy: QVQLVESGGGVVQPGRSLRLSCAASGFTFSNYGMHWVRQAPGKGLEWVAVILYDGSNKYYPDSVKGRFTISRDNSKNTLYLQMNSLRAEDTAVYYCARGGSSWYPDSFDIWGQGTMVTVSSASTKGPSVFPLAPCSRSTSESTAALGCLVKDYFPEPVTVSWNSGALTSGVHTFPAVLQSSGLYSLSSVVTVPSSNFGTQTYTCNVDHKPSNTKVDKTVERKSCVECPPCPAPPVAGPSVFLFPPKPKDTLMISRTPEVTCVVVDVSHEDPEVKFNWYVDGVEVHNAKTKPREEQYNSTYRVVSVLTVLHQDWLNGKEYKCKVSNKALPSSIEKTISKAKGQPREPQVYTLPPSREEMTKNQVSLTCLVKGFYPSDIAVEWESNGQPENNYKTTPPVLDSDGSFFLYSKLTVDKSRWQQGNVFSCSVMHEALHNHYTQKSLSLSPGK
light: not shown
notes: also called CD73.4-IgG2CS-IgG1.1f; CD73.4-IgG2.3G1.1f-KH
T1/2 internalization, Calu6 [3]: 34 min
T1/2 internalization, NCI-H292 [3]: 15.8 min
T1/2 internalization, NCI-H1437 [3]: 19 min
T1/2 internalization, NCI-H1437 (no wash) [3]: 20.5 min
T1/2 internalization, SNU-C1 [3]: 29.7 min
T1/2 internalization, SNU-C1 (no wash) [3]: 61.5 min
Ymax internalization, Calu6 [3]: 76.8%
Ymax internalization, NCI-H292 [3]: 77.6%
T1/2 internalization, Calu6 [1]: 21 min
T1/2 internalization, NCI-H292 [1]: 16.6 min
Ymax internalization, Calu6 [1]: 81%
Ymax internalization, NCI-H292 [1]: 90.3%
